Results on 78 sequences are retold here after the supplement of paper PMC10126150.

± gives the standard deviation of the averaged measurements.
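Also: ATP exposure 15 min at 22 °C before imaging.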

This series relates to ATP. Briefly: switch fluorescence ratio, 500 uM ATP over buffer (Cy3 cluster intensity, sum of 5 cycles each) (fold (ratio)); higher = stronger signal-on switching upon ATP binding; sequences stand for … in TCGTCGGCAGCGTCAGATGTGTATAAGAGACAGTTTTTTTTTTTTTTTTTTTTTTTTT…TC. Particulars: aptamer strand: ATP DNA aptamer (quencher-CACCTGGGGGAGTATTGCGGAGGAAGG + anchor), 100 nM annealed; ATP concentration: 500 uM. The essentials: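 Clusters with intensities outside 100-1000 RFU were excluded. The remaining Cy3-labelled switching-strand clusters on a modified Illumina MiSeq flow-cell had been annealed to 100 nM quencher-labelled ATP aptamer and imaged in selection buffer, then after 15 min with 500 uM ATP at 22 °C, for five cycles separated by NaOH stripping and re-annealing. The fluorescence ratio, averaged per switch-domain sequence, is each cluster's summed target-cycle Cy3 intensity over its summed buffer-cycle Cy3 intensity.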
On to TGGGTTCAGC, for which the switch fluorescence ratio is 1 ± 0.011.
Then TCGGCTAAAT, with 1.003 ± 0.0063; and ATGCGAAGAT, with 1.01 ± 0.011; and TTTAAGCATT, with 1.19 ± 0.066.
Then GGTCGTTTTT, with 1.044 ± 0.0029.
Then CACTGAGATG, with 1.01 ± 0.03; and CTTGGGTAGG, with 1.01 ± 0.035.
With TTTTTTTCAC, the switch fluorescence ratio came to 0.953 ± 0.058.
Then ATTTCCTTTG, with 1.021 ± 0.006; and ATTTAGGGGA, with 1.04 ± 0.056; and TGAACTTTTA, with 0.965 ± 0.061.
Then GGGTGCGGTT, with 1.011 ± 0.01; and TTCGGCAGTA, with 1 ± 0.025.
Then TCGTAACTGT, with 1.03 ± 0.016; and GTGTTTACGA, with 0.984 ± 0.027; and CTGAGCGATG, with 1.063 ± 0.0078.
Consider TGGGGGGTCA, for which the switch fluorescence ratio amounted to 0.993 ± 0.02.
Then AATAGTGGTG, with 1 ± 0.022; and GTGTGAAATC, with 0.987 ± 0.043.
Then TTAGTTTTTA, with 0.991 ± 0.022.
Consider GAGTAATGGT, for which the switch fluorescence ratio was 1.04 ± 0.02.
Then AGGGGCCTGT, with 0.962 ± 0.037; and GGGTGGGGGA, with 1.03 ± 0.028.
Then TTTCTGGGGG, with 0.984 ± 0.019; and TGAGGCAGGA, with 1.04 ± 0.042; and AGGTGGGTTG, with 1.01 ± 0.055.
Then TGCTTTCCTT, with 1.035 ± 0.0034.
Turning to CGGGGGGTG, the switch fluorescence ratio is 1.01 ± 0.05.
Then AGTTCGGGGT, with 1.02 ± 0.024; and TTTTGCATTC, with 1.1 ± 0.053; and CTGCTGAGCA, with 1.03 ± 0.029.
Then GGACATGGCG, with 0.943 ± 0.019; and TAAAAATAAA, with 0.995 ± 0.0065; and TTGACTAGCT, with 1.08 ± 0.09.
Then TTGAAGTAGT, with 1.03 ± 0.1; and AGAATATTGG, with 0.982 ± 0.046.
Regarding CGCCCCTTGC, the switch fluorescence ratio amounted to 1.17 ± 0.031.
In the case of GCTTAACTTC, the switch fluorescence ratio was 0.982 ± 0.039.
On to CTCTGTTTAG, for which the switch fluorescence ratio turned out to be 1.48 ± 0.53.
Then CGGGGCGTGC, with 1.01 ± 0.029; and CACCTCATAA, with 1.06 ± 0.011; and TTTAGATTTA, with 1.04 ± 0.042.
Then ATAACCATCA, with 0.996 ± 0.057; and GGTCGGCTAG, with 0.9954 ± 0.0083; and AGGTATGTTT, with 1 ± 0.068.
Consider TGTTAAGGGC, for which the switch fluorescence ratio is 1 ± 0.039.
With TTTAGACGAC, the switch fluorescence ratio came to 1.04 ± 0.051.
Then CCTTCTTGGG, with 1.015 ± 0.0033.
Then GGCCTGGGGG, with 1 ± 0.019.
For the sequence TATGATTGGC, the switch fluorescence ratio was found to be 0.972 ± 0.061.
Then CGGTTATCTA, with 1.01 ± 0.054.
Turning to GGGCATTGGG, the switch fluorescence ratio turned out to be 0.996 ± 0.043.
Then TTAATATAGG, with 0.999 ± 0.011.
Consider TATAATGTGG, for which the switch fluorescence ratio stood at 0.967 ± 0.015.
ACTAGTAGGG: the switch fluorescence ratio is 1 ± 0.0095.
Take GTGGTGGGTG: the switch fluorescence ratio was 1 ± 0.091.
Turning to TCGGGAATTG, the switch fluorescence ratio was found to be 1.04 ± 0.085.
Then CTAATGGGTG, with 1.02 ± 0.02.
With ATATGAAAAT, the switch fluorescence ratio came out at 1.01 ± 0.032.
In the case of ATGTAATAAT, the switch fluorescence ratio is 0.983 ± 0.027.
Regarding TTTTGGTGCT, the switch fluorescence ratio was 1.01 ± 0.03.
Then ATGACGGAGC, with 1.94 ± 0.31.
Then ATGATGGGGT, with 1.01 ± 0.06; and GCGCAGCTCG, with 0.9814 ± 0.0084; and ATTATCTTCT, with 0.994 ± 0.061.
With CGATCATGGT, the switch fluorescence ratio turned out to be 0.994 ± 0.011.
Then AGCACATTTG, with 0.97 ± 0.017; and TTTGGGCCAT, with 1.04 ± 0.12; and TAAGCGGGGC, with 1.0163 ± 0.00063.
As for ACGTTGTGGA, the switch fluorescence ratio stood at 1.027 ± 0.0075.
Then TCGTGACTGT, with 1.02 ± 0.065.
Then CAGAGTAGGT, with 1.02 ± 0.048; and TAAAGACAGC, with 1.006 ± 0.0073.
Then AGCGAAGGGG, with 1.01 ± 0.047; and GTATTTAGGG, with 1.03 ± 0.039; and TTTAAACGGG, with 1 ± 0.011.
TTGTGGATG: the switch fluorescence ratio is 0.962 ± 0.017.
Then TAATAATTCG, with 1.01 ± 0.012.
